Measured values as given in patent US20230314433A1 (KURUME UNIVERSITY, published 2023).

Tests used:
[1] = target: T1, recombinant human MDA5 protein (human, UniProt Q9BYX4 1-1025); assay: electrochemiluminescence sandwich immunoassay (MSD), H46 coated as primary (capture) mAb
T1 construct: Expressed in SF9 cells with baculovirus; also called pPSC8/human MDA5 product; MDA5 standard; not shown: N-terminal 6X His tag, GST and turbo 3C protease cleavage site
T1 sequence: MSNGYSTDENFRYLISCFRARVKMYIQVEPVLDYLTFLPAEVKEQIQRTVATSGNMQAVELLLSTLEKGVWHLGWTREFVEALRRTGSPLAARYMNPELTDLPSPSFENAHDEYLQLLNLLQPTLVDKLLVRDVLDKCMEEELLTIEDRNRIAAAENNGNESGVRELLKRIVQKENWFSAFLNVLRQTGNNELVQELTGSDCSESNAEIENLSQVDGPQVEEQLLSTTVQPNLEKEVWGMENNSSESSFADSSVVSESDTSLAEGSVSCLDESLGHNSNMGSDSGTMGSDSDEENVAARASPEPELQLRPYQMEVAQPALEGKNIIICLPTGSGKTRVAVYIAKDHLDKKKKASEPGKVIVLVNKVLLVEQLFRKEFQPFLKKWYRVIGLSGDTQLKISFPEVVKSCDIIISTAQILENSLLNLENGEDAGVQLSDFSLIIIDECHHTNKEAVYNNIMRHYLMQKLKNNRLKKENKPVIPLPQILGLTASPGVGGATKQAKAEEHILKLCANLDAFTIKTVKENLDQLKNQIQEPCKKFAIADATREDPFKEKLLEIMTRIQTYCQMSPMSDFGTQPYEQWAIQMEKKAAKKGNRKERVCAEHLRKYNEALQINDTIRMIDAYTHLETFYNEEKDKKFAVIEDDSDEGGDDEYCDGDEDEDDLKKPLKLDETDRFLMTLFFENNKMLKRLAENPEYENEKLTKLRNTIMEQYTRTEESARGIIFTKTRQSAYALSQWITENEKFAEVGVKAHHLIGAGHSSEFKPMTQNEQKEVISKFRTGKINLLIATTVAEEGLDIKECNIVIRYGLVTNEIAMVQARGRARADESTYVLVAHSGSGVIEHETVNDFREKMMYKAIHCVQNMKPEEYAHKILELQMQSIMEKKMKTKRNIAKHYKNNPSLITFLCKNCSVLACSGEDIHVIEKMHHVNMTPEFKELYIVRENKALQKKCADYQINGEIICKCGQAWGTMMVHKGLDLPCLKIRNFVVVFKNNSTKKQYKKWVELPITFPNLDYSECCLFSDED
Protocol: The human MDA5 sandwich immunoassay system was established using electrochemiluminescence in a MESOSCALE DISCOVERY (registered trademark) assay system (Meso Scale Japan, Tokyo, Japan). Briefly, mouse anti-human MDA5 monoclonal antibody (clone H46) was used as the primary mAb, dissolved at 2 µg/mL in phosphate-buffered saline (PBS), dispensed into plates in aliquots of 25 µL/well, and left undisturbed overnight at 4° C. The plates were then washed three times with 150 µL Quantikine Wash Buffer 1 (R&D Systems, Minneapolis, MN, USA). Block Ace blocking solution (100 µL/well; Nacalai Tesque, Kyoto, Japan) was added and incubated for at least one hour at room temperature to prevent nonspecific adhesion of the secondary antibody to the plates. The plates were then washed thrice. The samples were aliquoted at 25 µL/well. Recombinant human MDA5 protein diluted to 50 ng/mL, 10 ng/mL, 2 ng/mL, 400 pg/mL, 80 pg/mL, 16 pg/mL, and 3.2 pg/mL was used as a standard. After 1 h of incubation at room temperature, each well was washed thrice. Next, 2 µg/mL biotin-labeled mouse anti-human MDA5 secondary mAb (clone H27) was added at 25 µL/well, followed by incubation for 1 h at room temperature after which each well was washed three times. […] The amount of human MDA5 protein was measured using MESO QuickPlex SQ 120 according to the manufacturer’s protocol.

[2] = target: T2, human MDA5 protein (full-length, about 120 kDa) (human, UniProt Q9BYX4 1-1025); assay: Western blot of normal lung and lung cancer tissues, mAb at 1 ug/mL
T2 construct: Endogenous cytoplasmic protein in human tissue sections, tissue lysates and PBMCs (band of about 120 kDa); also called IFIH1
T2 sequence: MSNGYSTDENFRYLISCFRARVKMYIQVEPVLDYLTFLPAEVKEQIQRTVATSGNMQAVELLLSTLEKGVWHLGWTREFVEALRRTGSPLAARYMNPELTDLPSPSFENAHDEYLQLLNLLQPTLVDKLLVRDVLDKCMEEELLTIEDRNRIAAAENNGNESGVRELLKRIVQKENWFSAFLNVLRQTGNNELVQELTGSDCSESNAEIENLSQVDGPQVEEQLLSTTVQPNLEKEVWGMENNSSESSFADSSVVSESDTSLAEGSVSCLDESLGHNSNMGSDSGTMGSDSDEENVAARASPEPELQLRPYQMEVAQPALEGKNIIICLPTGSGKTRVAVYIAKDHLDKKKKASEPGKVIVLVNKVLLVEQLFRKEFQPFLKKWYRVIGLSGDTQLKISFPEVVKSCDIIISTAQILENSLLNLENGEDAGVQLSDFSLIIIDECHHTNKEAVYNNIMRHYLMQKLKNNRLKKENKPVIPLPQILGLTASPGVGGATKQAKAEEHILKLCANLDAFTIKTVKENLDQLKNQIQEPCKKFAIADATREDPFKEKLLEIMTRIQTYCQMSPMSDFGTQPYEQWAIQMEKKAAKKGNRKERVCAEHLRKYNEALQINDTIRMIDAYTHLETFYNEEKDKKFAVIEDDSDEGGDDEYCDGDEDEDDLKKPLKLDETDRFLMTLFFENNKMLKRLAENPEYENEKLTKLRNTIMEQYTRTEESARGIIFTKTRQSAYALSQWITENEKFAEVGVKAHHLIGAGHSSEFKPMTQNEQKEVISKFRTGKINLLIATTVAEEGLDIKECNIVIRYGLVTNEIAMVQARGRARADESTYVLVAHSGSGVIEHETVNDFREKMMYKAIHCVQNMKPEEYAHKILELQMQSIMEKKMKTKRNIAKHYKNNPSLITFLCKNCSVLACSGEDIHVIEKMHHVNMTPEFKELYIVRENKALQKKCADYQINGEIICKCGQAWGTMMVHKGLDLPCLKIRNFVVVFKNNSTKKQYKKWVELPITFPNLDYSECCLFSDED
Protocol: Western blotting analysis was performed by using NuPAGE (registered trademark) 7% Tris-Acetate Midi Gel (Thermo Fisher Scientific, Tokyo, Japan) according to the manufacture’s protocol. Anti-human MDA5 mAb (clone H27 or clone H46, 1 µg/mL) was used for immunoblotting, as previously reported (T. Hoshino, et al., Am J Respir Crit Care Med 176 (2007) 49-62).

binding result [1]: binds
binding result [2]: binds
B1: mouse anti-human MDA5 monoclonal antibody (H46) (antibody, V domains shown)
VH: EFQLQQSGPELVKPGASVKISCKASGYSFTDYNMNWVKQSNGKSLEWIGVINPDYGSTSYNKKFKGKATLTVDQSSTTAYMQLNSLTSEDSAVYFCARDRYGNYFDYWGQGTTLTVSS
VL: QIVLTQSPAIMSASPGEKVTMTCSASSSLNYMHWYLQKPGTSPKRWIYDTSKLASGVPARFSGSGSGTSYSLTISSMEAEDAATYYCHQRSSYPITFGSGTKLEIK
notes: Mouse IgG2b from a hybridoma; also called clone H46; H46 [mouse IgG2b]
